# Measured values published in patent US20150344570A1 (published 2015).
# T1: FcγRIIb extracellular domain with C-terminal His tag (human, UniProt P31994 43-217)
# T1 construct: extracellular domain; Soluble receptor expressed in FreeStyle293 cells, used as analyte in Biacore; also called FcgRIIb; 2b; not shown: His tag attached to the C terminus
# T1 sequence (looked up): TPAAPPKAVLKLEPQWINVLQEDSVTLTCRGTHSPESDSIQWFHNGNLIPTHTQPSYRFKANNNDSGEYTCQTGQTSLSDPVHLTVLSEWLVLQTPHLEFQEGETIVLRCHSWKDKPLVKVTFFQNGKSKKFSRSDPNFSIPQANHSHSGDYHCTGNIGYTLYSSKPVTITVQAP
# B1: GpH7-A5/GpH7-B3 variant P271_01G/GpL16-k0 (antibody, human IgG1, kappa)
# heavy 1: not shown
# heavy 2: not shown
# light: DIVMTQSPLSLPVTPGEPASISCQASESLVHSNRNTYLHWYLQKPGQSPQLLIYKVSNRFSGVPDRFSGSGSGTDFTLKISRVEAEDVGVYYCSQNTHVPPTFGQGTKVEIERTVAAPSVFIFPPSDEQLKSGTASVVCLLNNFYPREAKVQWKVDNALQSGNSQESVTEQDSKDSTYSLSSTLTLSKADYEKHKVYACEVTHQGLSSPVTKSFNRGEC
# notes: Heterodimerized antibody (He Ab) with the mutation in only one H chain; also called He Ab P271G
# B2: GpH7-A5/GpH7-B3 variant S267_14T/GpL16-k0 (antibody, human IgG1, kappa)
# heavy 1: not shown
# heavy 2: not shown
# light: B1 light
# notes: Heterodimerized antibody (He Ab) with the mutation in only one H chain; also called He Ab S267T
# B3: GpH7-A5/GpH7-B3 variant P271_08L/GpL16-k0 (antibody, human IgG1, kappa)
# heavy 1: not shown
# heavy 2: not shown
# light: B1 light
# notes: Heterodimerized antibody (He Ab) with the mutation in only one H chain; also called He Ab P271L
# B4: GpH7-A5/GpH7-B3 variant S267_20W/GpL16-k0 (antibody, human IgG1, kappa)
# heavy 1: not shown
# heavy 2: not shown
# light: B1 light
# notes: Heterodimerized antibody (He Ab) with the mutation in only one H chain; also called He Ab S267W
# B5: GpH7-A5/GpH7-B3 variant S267_15Y/GpL16-k0 (antibody, human IgG1, kappa)
# heavy 1: not shown
# heavy 2: not shown
# light: B1 light
# notes: Heterodimerized antibody (He Ab) with the mutation in only one H chain; also called He Ab S267Y
# B6: GpH7-A5/GpH7-B3 variant S267_10E/GpL16-k0 (antibody, human IgG1, kappa)
# heavy 1: not shown
# heavy 2: not shown
# light: B1 light
# notes: Heterodimerized antibody (He Ab) with the mutation in only one H chain; also called He Ab S267E
# B7: GpH7-A5/GpH7-B3 variant S267_16H/GpL16-k0 (antibody, human IgG1, kappa)
# heavy 1: not shown
# heavy 2: not shown
# light: B1 light
# notes: Heterodimerized antibody (He Ab) with the mutation in only one H chain; also called He Ab S267H
# B8: GpH7-A5/GpH7-B3 variant S267_19Q/GpL16-k0 (antibody, human IgG1, kappa)
# heavy 1: not shown
# heavy 2: not shown
# light: B1 light
# notes: Heterodimerized antibody (He Ab) with the mutation in only one H chain; also called He Ab S267Q
# B9: GpH7-A5/GpH7-B3 variant S267_09D/GpL16-k0 (antibody, human IgG1, kappa)
# heavy 1: not shown
# heavy 2: not shown
# light: B1 light
# notes: Heterodimerized antibody (He Ab) with the mutation in only one H chain; also called He Ab S267D
# B10: GpH7-A5/GpH7-B3 variant S324_01G/GpL16-k0 (He Ab) (antibody, human IgG1, kappa)
# heavy 1: not shown
# heavy 2: not shown
# light: B1 light
# notes: Heterodimerized anti-glypican-3 antibody; the alteration stands only in the GpH7-B3 chain
# B11: GpH7-A5/GpH7-B3 variant T335_05P/GpL16-k0 (He Ab) (antibody, human IgG1, kappa)
# heavy 1: not shown
# heavy 2: not shown
# light: B1 light
# notes: as for B10
# B12: GpH7-A5/GpH7-B3 variant S337_01G/GpL16-k0 (He Ab) (antibody, human IgG1, kappa)
# heavy 1: not shown
# heavy 2: not shown
# light: B1 light
# notes: as for B10
# B13: GpH7-A5/GpH7-B3 variant S324_06M/GpL16-k0 (He Ab) (antibody, human IgG1, kappa)
# heavy 1: not shown
# heavy 2: not shown
# light: B1 light
# notes: as for B10
# B14: GpH7-A5/GpH7-B3 variant T335_09D/GpL16-k0 (He Ab) (antibody, human IgG1, kappa)
# heavy 1: not shown
# heavy 2: not shown
# light: B1 light
# notes: as for B10
# B15: GpH7-A5/GpH7-B3 variant S239_10E/GpL16-k0 (He Ab) (antibody, human IgG1, kappa)
# heavy 1: not shown
# heavy 2: not shown
# light: B1 light
# notes: as for B10
# B16: GpH7-A5/GpH7-B3 variant Y296_20W/GpL16-k0 (He Ab) (antibody, human IgG1, kappa)
# heavy 1: not shown
# heavy 2: not shown
# light: B1 light
# notes: as for B10
# B17: GpH7-A5/GpH7-B3 variant S337_16H/GpL16-k0 (He Ab) (antibody, human IgG1, kappa)
# heavy 1: not shown
# heavy 2: not shown
# light: B1 light
# notes: as for B10
# B18: GpH7-A5/GpH7-B3 variant S324_20W/GpL16-k0 (He Ab) (antibody, human IgG1, kappa)
# heavy 1: not shown
# heavy 2: not shown
# light: B1 light
# notes: as for B10
# B19: GpH7-A5/GpH7-B3 variant T335_06M/GpL16-k0 (He Ab) (antibody, human IgG1, kappa)
# heavy 1: not shown
# heavy 2: not shown
# light: B1 light
# notes: as for B10
# B20: GpH7-A5/GpH7-B3 variant Y300_08L/GpL16-k0 (He Ab) (antibody, human IgG1, kappa)
# heavy 1: not shown
# heavy 2: not shown
# light: B1 light
# notes: as for B10
# Target: T1, FcγRIIb extracellular domain with …
# Test: SPR (Biacore T100), antibody captured on antigen peptide chip, FcγR as analyte
# Method: (§1) Analysis of interaction between objective antibody and the FcγR was carried out using Biacore T100 (GE Healthcare). HBS-EP+ (GE Healthcare) was used as the running buffer, and the measurement temperature was set to 25° C. Chips produced by immobilizing the antigen peptide by the amine coupling method to a Series S Sencor Chip CM5 (GE Healthcare), or alternatively, chips produced by allowing preliminarily biotinylated antigen peptides to interact with and immobilize onto a Series S Sensor Chip SA (certified) (GE Healthcare) were used. Antibodies of interest were captured onto an antigen peptide-immobilized chip, and allowed to interact to each FcγR diluted with running buffer. To regenerate and repeatedly use the chip, the antibodies captured on the chip were washed off by reacting 10 mM glycine-HCl, pH 1.5.
row,He/Con_2b,Binder
1,"193 relative binding, GpH7-A5/GpH7-B3/GpL16-k0 = 100",B1
2,"104 relative binding, GpH7-A5/GpH7-B3/GpL16-k0 = 100",B2
3,"103 relative binding, GpH7-A5/GpH7-B3/GpL16-k0 = 100",B3
4,"57.2 relative binding, GpH7-A5/GpH7-B3/GpL16-k0 = 100",B4
5,"37.9 relative binding, GpH7-A5/GpH7-B3/GpL16-k0 = 100",B5
6,"379 relative binding, GpH7-A5/GpH7-B3/GpL16-k0 = 100",B6
7,"65.9 relative binding, GpH7-A5/GpH7-B3/GpL16-k0 = 100",B7
8,"218 relative binding, GpH7-A5/GpH7-B3/GpL16-k0 = 100",B8
9,"310 relative binding, GpH7-A5/GpH7-B3/GpL16-k0 = 100",B9

# Target: T2, FcγRIIIa extracellular domain with C-terminal His tag (human, UniProt P08637 17-208)
# T2 construct: extracellular domain; also called FcgRIIIa; 3a; not shown: His tag attached to the C terminus
# T2 sequence (P08637 17-208): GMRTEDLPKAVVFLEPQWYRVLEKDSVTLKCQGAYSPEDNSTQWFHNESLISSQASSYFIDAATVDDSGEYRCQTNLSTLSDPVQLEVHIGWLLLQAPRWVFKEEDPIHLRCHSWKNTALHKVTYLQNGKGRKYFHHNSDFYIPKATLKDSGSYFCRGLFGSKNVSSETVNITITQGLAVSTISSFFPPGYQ
# Test: as above
# Method: as §1
row,He/Con_3a,Binder
1,"113 relative binding, GpH7-A5/GpH7-B3/GpL16-k0 = 100",B1
2,"45.6 relative binding, GpH7-A5/GpH7-B3/GpL16-k0 = 100",B2
3,"71 relative binding, GpH7-A5/GpH7-B3/GpL16-k0 = 100",B3
4,"21.5 relative binding, GpH7-A5/GpH7-B3/GpL16-k0 = 100",B4
5,"11.8 relative binding, GpH7-A5/GpH7-B3/GpL16-k0 = 100",B5
6,"91.9 relative binding, GpH7-A5/GpH7-B3/GpL16-k0 = 100",B6
7,"17.9 relative binding, GpH7-A5/GpH7-B3/GpL16-k0 = 100",B7
8,"65 relative binding, GpH7-A5/GpH7-B3/GpL16-k0 = 100",B8
9,"181 relative binding, GpH7-A5/GpH7-B3/GpL16-k0 = 100",B9

# Target: T3, FcγRIIIa (human, UniProt P08637 17-208)
# T3 construct: extracellular domain; also called 3a; FcgRIIIa
# T3 sequence (P08637 17-208): as above
# Test: SPR (Biacore), antibody captured on antigen-peptide chip, FcγR as analyte; binding of He Ab / binding of HeCon Ab GpH7-A5/GpH7-B3/GpL16-k0 x 100
row,He/Con_3a,Binder
1,105 relative to control = 100,B10
2,105 relative to control = 100,B11
3,102 relative to control = 100,B12
4,113 relative to control = 100,B13
5,108 relative to control = 100,B14
6,181 relative to control = 100,B15
7,135 relative to control = 100,B16
8,108 relative to control = 100,B17
9,102 relative to control = 100,B18
10,102 relative to control = 100,B19
11,105 relative to control = 100,B20

# Target: T2, FcγRIIIa extracellular domain with …
# Test: SPR (Biacore); He/Con_3a (FcγRIIIa) divided by He/Con_2b (FcγRIIb)
row,He_3a/2b (IIIa/IIb) [ratio],Binder
1,0.59,B1
2,0.44,B2
3,0.69,B3
4,0.37,B4
5,0.31,B5
6,0.24,B6
7,0.27,B7
8,0.3,B8
9,0.58,B9
